Experimental findings from article PMC2739207 (BMC Structural Biology, 2009) are described below.

Series [1] concerns the molecule itself. The experiment in a line: SEC; gel filtration column during protein purification, after affinity and anion exchange columns; single 280 nm absorption peak; conditions as in ref. 17. A general note: Size exclusion chromatography separates by hydrodynamic size, large species first.
Series [2] has as its target T1, 40 kDa C-terminal fragment of the lysosomal 66.3 kDa protein from mouse (C249-D594) (mouse, UniProt Q3TCN2 249-594, N-glycans at N441 and N520; C249 partially oxidized, modeled as cysteine sulfonic acid (OCS)).
T1 construct: lysosomal 66.3 kDa protein, mouse; C-terminal proteolytic fragment beginning at C249; ordered in 3FGR and 3FGT: C249-P592; W593, D594 and the eleven tag residues are disordered; Made by cleavage of the 66.3 kDa proprotein between S248 and C249; also called 40 kDa fragment; chain B; source: gel filtration only for the batch of 3FGR
T1 sequence (looked up): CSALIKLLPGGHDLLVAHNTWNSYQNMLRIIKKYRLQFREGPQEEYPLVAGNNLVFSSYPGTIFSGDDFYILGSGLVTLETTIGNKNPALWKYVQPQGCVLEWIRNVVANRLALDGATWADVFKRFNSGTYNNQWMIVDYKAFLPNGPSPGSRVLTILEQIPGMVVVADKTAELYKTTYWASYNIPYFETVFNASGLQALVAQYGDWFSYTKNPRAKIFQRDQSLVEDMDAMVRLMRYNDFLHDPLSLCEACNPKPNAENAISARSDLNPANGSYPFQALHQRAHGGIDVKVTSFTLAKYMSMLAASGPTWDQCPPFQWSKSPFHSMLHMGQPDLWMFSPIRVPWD
Nature of the series: crystal structure; crystals grown under acidic conditions (PEG 4000, NaAc/HAc pH 4.6, NH4Ac); crystal form I, space group C2, one molecule in the asymmetric unit; 3FGR at 1.8 Å, 3FGT at 2.4 Å. The note with it: both partners purified.

B1: lysosomal 66.3 kDa protein from mouse (natural protein, UniProt Q3TCN2 47-594, looked up)
chain: LPTLGPGWQRQNPDPPVSRTRSLLLDAASGQLRLEDGFHPDAVAWANLTNAIRETGWAYLDLSTNGRYNDSLQAYAAGVVEASVSEELIYMHWMNTVVNYCGPFEYEVGYCEKLKNFLEANLEWMQREMELNPDSPYWHQVRLTLLQLKGLEDSYEGRLTFPTGRFTIKPLGFLLLQISGDLEDLEPALNKTNTKPSLGSGSCSALIKLLPGGHDLLVAHNTWNSYQNMLRIIKKYRLQFREGPQEEYPLVAGNNLVFSSYPGTIFSGDDFYILGSGLVTLETTIGNKNPALWKYVQPQGCVLEWIRNVVANRLALDGATWADVFKRFNSGTYNNQWMIVDYKAFLPNGPSPGSRVLTILEQIPGMVVVADKTAELYKTTYWASYNIPYFETVFNASGLQALVAQYGDWFSYTKNPRAKIFQRDQSLVEDMDAMVRLMRYNDFLHDPLSLCEACNPKPNAENAISARSDLNPANGSYPFQALHQRAHGGIDVKVTSFTLAKYMSMLAASGPTWDQCPPFQWSKSPFHSMLHMGQPDLWMFSPIRVPWD
modifications: N-glycans at N93, N115, N236, N441 and N520; mannose 6-phosphate containing
notes: lysosomal 66.3 kDa protein, mouse; proprotein after removal of the signal peptide, L47-D594; ordered in 3FGW: P61-N239 and G245-D594; The preparation on the gel filtration column was a mixture of the uncleaved chain and the cleaved form (28 kDa plus 40 kDa fragments); the dimer is told of the 66.3 kDa protein as a whole; also called uncleaved 66.3 kDa protein; uncleaved form (3FGW)
By stoichiometry N is commonly meant the number of molecules, sites or subunits per partner or assembly. Consider B1, for which the “stoichiometry N” value in series [1] is 2.

B2: 28 kDa N-terminal fragment of the lysosomal 66.3 kDa protein from mouse (L47-S248) (domain or fragment, UniProt Q3TCN2 47-248, looked up)
chain: LPTLGPGWQRQNPDPPVSRTRSLLLDAASGQLRLEDGFHPDAVAWANLTNAIRETGWAYLDLSTNGRYNDSLQAYAAGVVEASVSEELIYMHWMNTVVNYCGPFEYEVGYCEKLKNFLEANLEWMQREMELNPDSPYWHQVRLTLLQLKGLEDSYEGRLTFPTGRFTIKPLGFLLLQISGDLEDLEPALNKTNTKPSLGSGS
modifications: N-glycans at N93, N115 and N236
notes: lysosomal 66.3 kDa protein, mouse; N-terminal proteolytic fragment after cleavage between S248 and C249; residues L47-S248 by mass spectrometry; ordered in 3FGR: V63-T238 and G245-S248; Made by cleavage of the 66.3 kDa proprotein; it never stood apart from the 40 kDa fragment; The protein batch also holds the shorter form L47-S246 and the uncleaved protein; also called 28 kDa fragment; …
As for B2, the binding result in series [2] is “binds”.

B3: 28 kDa N-terminal fragment of the lysosomal 66.3 kDa protein from mouse, shorter form (L47-S246) (domain or fragment, UniProt Q3TCN2 47-246, looked up)
chain: LPTLGPGWQRQNPDPPVSRTRSLLLDAASGQLRLEDGFHPDAVAWANLTNAIRETGWAYLDLSTNGRYNDSLQAYAAGVVEASVSEELIYMHWMNTVVNYCGPFEYEVGYCEKLKNFLEANLEWMQREMELNPDSPYWHQVRLTLLQLKGLEDSYEGRLTFPTGRFTIKPLGFLLLQISGDLEDLEPALNKTNTKPSLGS
modifications: N-glycans at N115 and N236 seen in 3FGT
notes: lysosomal 66.3 kDa protein, mouse; 28 kDa fragment truncated at the C-terminus by two residues; residues L47-S246 by mass spectrometry; ordered in 3FGT: D60-N239; residues after N239 are disordered in the structure; also called shorter version of the 28 kDa fragment; chain A of 3FGT; source: HT1080 human fibrosarcoma cells, overexpressed, purified (original protocol lacking a gel filtration)
Turning to B3, the binding result in series [2] was “binds”.
